Tests used:
RPTPα-P137C [1] = test: cross-linking
RPTPα-P137C [2] = test: non-reducing SDS-PAGE
[3] = target: RPTPα-200-XFP (RPTPα-200-CFP and RPTPα-200-YFP); test: cross-linking
[4] = target: RPTPα-516-XFP (RPTPα-516-CFP and RPTPα-516-YFP); test: FRET or BRET
[5] = target: RPTPα-P137C-XFP (RPTPα-P137C-CFP and RPTPα-P137C-YFP); test: FRET or BRET
[6] = target: full length RPTPα-XFP (RPTPα-CFP and RPTPα-YFP); test: cross-linking
[7] = target: full length RPTPα-XFP (RPTPα-CFP and RPTPα-YFP); test: FRET or BRET

Sequence of RPTPα-516-XFP (RPTPα-516-CFP and RPTPα-516-YFP) (P18052 20-829): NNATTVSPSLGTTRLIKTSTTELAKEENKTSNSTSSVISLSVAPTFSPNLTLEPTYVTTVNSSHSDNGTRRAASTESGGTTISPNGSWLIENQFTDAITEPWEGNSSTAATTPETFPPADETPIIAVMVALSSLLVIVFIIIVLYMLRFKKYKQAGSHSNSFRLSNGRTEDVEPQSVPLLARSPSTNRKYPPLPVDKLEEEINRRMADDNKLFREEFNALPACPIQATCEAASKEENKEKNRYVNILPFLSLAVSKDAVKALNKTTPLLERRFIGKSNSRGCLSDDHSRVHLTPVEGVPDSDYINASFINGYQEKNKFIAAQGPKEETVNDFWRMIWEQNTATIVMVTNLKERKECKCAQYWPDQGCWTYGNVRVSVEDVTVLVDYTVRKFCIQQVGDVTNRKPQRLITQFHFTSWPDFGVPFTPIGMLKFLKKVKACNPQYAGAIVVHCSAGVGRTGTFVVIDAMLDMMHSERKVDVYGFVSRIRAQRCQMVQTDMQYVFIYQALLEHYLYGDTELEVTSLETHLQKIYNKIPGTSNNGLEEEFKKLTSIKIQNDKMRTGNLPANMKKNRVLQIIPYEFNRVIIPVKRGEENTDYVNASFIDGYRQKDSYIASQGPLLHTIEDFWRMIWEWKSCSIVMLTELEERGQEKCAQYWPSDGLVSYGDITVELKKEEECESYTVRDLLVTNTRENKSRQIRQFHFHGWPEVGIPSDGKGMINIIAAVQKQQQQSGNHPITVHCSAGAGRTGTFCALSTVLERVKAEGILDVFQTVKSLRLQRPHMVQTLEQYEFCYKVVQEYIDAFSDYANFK
Sequence of RPTPα-200-XFP (RPTPα-200-CFP and RPTPα-200-YFP) (P18052 20-829): as above

RPTPα-P137C (receptor) gave a percent cross-linked by BS3 (RPTPα-P137C [1]) of under 10% and a percent in the dimeric form (RPTPα-P137C [2]) of over 80%.

Substance “RPTPα-200-XFP (RPTPα-200-CFP and RPTPα-200-YFP) (domain or fragment)” has a stoichiometry N [3] of 2.

With “RPTPα-516-XFP (RPTPα-516-CFP and RPTPα-516-YFP) (domain or fragment)” the F(440)/F(490) ratio [4] was 0.46.

“RPTPα-P137C-XFP (RPTPα-P137C-CFP and RPTPα-P137C-YFP) (receptor)” was tested, and the F(440)/F(490) ratio [5] was 0.5.

For “full length RPTPα-XFP (RPTPα-CFP and RPTPα-YFP) (receptor)”, the stoichiometry N [6] was 2 and the CFP fluorescence lifetime (τφ) [7] was 2.2 ns.

— PMC32300
